In US20150104459A1 one finds Trimeric HA Binding RLU and Trimeric HA Binding: RLU data, which are given here for 6 molecules.

Common to all, as to conditions: remark: other sources report otherwise
In test [1] the target is recombinant soluble homotrimeric HA of A/Anhui/1/05 (H5N1) (Influenza A virus A/Anhui/1/2005 (H5N1)). As to the kind of experiment: HA microarray, BCC supernatant.
The target of test [2] is recombinant soluble homotrimeric HA of A/California/4/09 (H1N1) (Influenza A virus A/California/04/2009 (H1N1)). Put plainly: HA microarray, BCC supernatant.
Test [3] has as its target recombinant soluble homotrimeric HA of A/Egypt/3300-NAMRU3/08 (H5N1) (Influenza A virus A/Egypt/3300-NAMRU3/2008 (H5N1)). Put plainly: HA microarray, BCC supernatant.
Test [4] deals with recombinant soluble homotrimeric HA of A/Indonesia/5/05 (H5N1) (Influenza A virus A/Indonesia/5/2005 (H5N1)). Put plainly: HA microarray, BCC supernatant.
In test [5] the target is recombinant soluble homotrimeric HA of A/Japan/305/57 (H2N2) (Influenza A virus A/Japan/305/1957 (H2N2)). As to the kind of experiment: HA microarray, BCC supernatant.
Test [6] has as its target recombinant soluble homotrimeric HA of A/Solomon Islands/3/06 (H1N1) (Influenza A virus A/Solomon Islands/3/2006 (H1N1)). As to the kind of experiment: HA microarray, BCC supernatant.
Test [7] has as its target recombinant soluble homotrimeric HA of A/Vietnam/1203/04 (H5N1) (Influenza A virus A/Vietnam/1203/2004 (H5N1)). As to the kind of experiment: HA microarray, BCC supernatant.
Test [8] has as its target recombinant soluble homotrimeric HA of A/Wisconsin/67/05 (H3N2) (Influenza A virus A/Wisconsin/67/2005 (H3N2)). Put plainly: HA microarray, BCC supernatant.
Test [9] has as its target recombinant soluble homotrimeric HA of A/chicken/Vietnam/NCVD-016/08 (H5N1) (Influenza A virus A/chicken/Vietnam/NCVD-016/2008 (H5N1)). Put plainly: HA microarray, BCC supernatant.
The target of test [10] is recombinant soluble homotrimeric HA of A/duck/Yangzhou/02/2005 (H8N4) (Influenza A virus A/duck/Yangzhou/02/2005 (H8N4)). Put plainly: HA microarray, BCC supernatant.
Test [11] addresses recombinant soluble homotrimeric HA of A/northern shoveler/California/HKWF115/2007 (H6N1) (Influenza A virus A/northern shoveler/California/HKWF115/2007 (H6N1)). As to the kind of experiment: HA microarray, BCC supernatant.
Test [12] deals with recombinant soluble homotrimeric HA of A/swine/Ontario/01911-2/99 (H4N6) (Influenza A virus A/Swine/Ontario/01911-2/99 (H4N6)). Put plainly: HA microarray, BCC supernatant.
The target in test [13] is recombinant soluble homotrimeric HA, A/Hong Kong/1073/99 (H9N2) (influenza A virus A/Hong Kong/1073/99 (H9N2)). As to the kind of experiment: microarray, trimeric HA, transfection supernatant.
Test [14] deals with recombinant soluble homotrimeric HA, A/chicken/Vietnam/NCVD-016/08 (H5N1) (influenza A virus A/chicken/Vietnam/NCVD-016/2008 (H5N1)). As to the kind of experiment: microarray, trimeric HA, transfection supernatant.
The target in test [15] is recombinant soluble homotrimeric HA, A/northern shoveler/California/HKWF115/2007 (H6N1) (influenza A virus A/northern shoveler/California/HKWF115/2007 (H6N1)). Put plainly: microarray, trimeric HA, transfection supernatant.
Test [16] addresses recombinant soluble homotrimeric HA of A/Hong Kong/2108/03 (H9N2) (Influenza A virus A/Hong Kong/2108/2003 (H9N2)). Put plainly: HA microarray, BCC supernatant.
Test [17] deals with recombinant soluble homotrimeric HA of A/Netherlands/219/03 (H7N7) (Influenza A virus A/Netherlands/219/03 (H7N7)). Put plainly: HA microarray, BCC supernatant.
Test [18] has as its target recombinant soluble homotrimeric HA, A/Anhui/1/05 (H5N1) (influenza A virus A/Anhui/1/2005 (H5N1)). As to the kind of experiment: microarray, trimeric HA, transfection supernatant.
In test [19] the target is recombinant soluble homotrimeric HA, A/Hong Kong/156/97 (H5N1) (influenza A virus A/Hong Kong/156/97 (H5N1)). As to the kind of experiment: microarray, trimeric HA, transfection supernatant.
For test [20], the target named is recombinant soluble homotrimeric HA, A/Netherlands/219/03 (H7N7) (influenza A virus A/Netherlands/219/03 (H7N7)). Put plainly: microarray, trimeric HA, transfection supernatant.
The target of test [21] is recombinant soluble homotrimeric HA, A/duck/Yangzhou/02/2005 (H8N4) (influenza A virus A/duck/Yangzhou/02/2005 (H8N4)). Put plainly: microarray, trimeric HA, transfection supernatant.
Test [22] has as its target recombinant homotrimeric HA, A/Japan/305/57 H2N2 (Influenza A virus A/Japan/305/57 (H2N2)). Put plainly: trimeric HA microarray; transfection supernatant set 3.
Test [23] addresses recombinant homotrimeric HA, A/Vietnam/1203/04 H5N1 (Influenza A virus A/Vietnam/1203/04 (H5N1)). The test is described as above.
The target in test [24] is recombinant homotrimeric HA, A/swine/Ontario/01911-2/99 H4N6 (Influenza A virus A/swine/Ontario/01911-2/99 (H4N6)). Put plainly: trimeric HA microarray; transfection supernatant set 5.

Several values for one entry are separate records, joined by “and”; a condition that tells them apart may be missing. Equal entries are not always repeated.

B1: TCN-535 (5246_P19) (antibody, V domains shown)
VH: QVQLVQSGSEVKKPGTSVKVSCTASGSVFTNYGISWVRQAPGQGLEWMGGIIPLFGAAKYAQKFQGRVTITADESTKTVYMELSRLTSKDTAIYFCAKAPRVYEYYFDQWGQGTPVTVSS
VL: EIVLTQSPGTLSLSPGERATLSCRASQSVSSSQLAWYQQKPGQAPRLIIYGASTRATGIPDRFSGSGSGTDFTLTIGRLEPEDFAVFFCQQYSTSPPTFGQGTKVDFK
For B1, the Trimeric HA Binding RLU came to 6880 RLU in test [1]; 48600 RLU in test [2]; 39400 RLU in test [3]; 45600 RLU in test [4]; 26100 RLU in test [5]; 39400 RLU in test [6]. In addition, the Trimeric HA Binding RLU in test [7] turned out to be 4740 RLU; in test [8], 34300 RLU; in test [9], 50000 RLU; in [10], 36600 RLU; in [11] it was 48200 RLU; in [12], 5950 RLU. For the same molecule, the figures for the Trimeric HA Binding RLU in test [13], in test [14] and in test [15] were 21200 RLU, 20900 RLU and 18100 RLU, respectively.

B2: TCN-540 (5060_F05) (antibody, V domains shown)
VH: QVQLVQSGGGVVQPGRSLRLSCAASGFTFSSYAMHWVRQAPGKGLEWVAIISYDGNDQYYTDSVKGRFTISRDSSKVYLQMHRLRPEDTAVYYCAKEFETSGYFHGSFDYWGQGILVTVSS
VL: QSALTQPASVSGSPGQSITISCTGTSSDVGGYNYVSWYQQHPGKAPKLLIYEVTNWPSGVSNRFSGSKSGNTASLTISGLQAEDEADYYCSSYAGSSTWVFGGGTRVTVL
Turning to B2, the Trimeric HA Binding RLU is 25 RLU in [1]; 57 RLU in test [2]; 1970 RLU in test [3]; 22 RLU in test [16]; 31 RLU in test [4]; 2970 RLU in [5]. The Trimeric HA Binding RLU in test [17] was 381 RLU; in test [6] it was 64 RLU; in test [8], 728 RLU; in [9], 70 RLU; in test [10], 117 RLU; in test [11] it was 131 RLU. For the same molecule, the Trimeric HA Binding RLU worked out at 2190 RLU in test [18]; 1550 RLU in test [19]; 4390 RLU in [20]; 1510 RLU in test [14]; 6080 RLU in test [21]; 2460 RLU in test [15].

B3: TCN-531 (5091_H13) (antibody, V domains shown)
VH: EVQLVESGGDLVQPGRSLKLSCTGSGFTFGDYGVTWVRQAPGKGLEWVGFIRTRPWGGTADTAASVKGRFTISRDDSKSLAYLQMNSLKTEDTAVYYCCRDAPPNVEVASMTNWYFDLWGRGTLVTVSS
VL: DIQLTQSPSSLSASVGDRVTITCRASQGILNCLAWYQQKPGKVPNLLMYAASTLQSGVPSRFSGSGFGTDFTLTISSLQPEDVATYYCQTYGGVSTFGGGTKVEIR
Regarding B3, the results for the Trimeric HA Binding RLU in test [5], in [8] and in [10] were 410 RLU, 7090 RLU and 3120 RLU, respectively. Moreover, the Trimeric HA Binding: RLU in test [22] is 489 RLU; in test [23], 2410 RLU.

B4: TCN-555 (5246_L16) (antibody, V domains shown)
VH: QVQLVQSGAEVKRPGSSVKVSCTASGGIFRKNAISWVRQAPGQGLEWMGGIIAVFNTANYAQKFQNRVKITADESGNTAYMELSSLTSDDTAVYYCASHPKYFYGSGSYPDFWGQGTLVTVSS
VL: QSALTQPRSVSGSPGQSITISCTGGSSDIGASNSVSWYQQHPGKAPKLVIFDVTERPSGVPHRFSGSKSGNTASLTVSGLQPDDEADYFCCAYGGKYLVVFGGGTKVTVL
Regarding B4, the Trimeric HA Binding RLU in test [1] was found to be 1500 RLU; in [2] it was 44900 RLU; in [3], 42700 RLU; in [4], 34500 RLU; in [5], 2130 RLU; in test [6], 26400 RLU. The Trimeric HA Binding RLU in [7] stood at 876 RLU; in test [8], 9800 RLU; in test [9], 22300 RLU; in test [10] it was 18400 RLU; in [11] it was 49500 RLU; in [12], 1950 RLU. Also, the values for the Trimeric HA Binding RLU in [19], in [14] and in [15] were 36300 RLU, 35200 RLU and 28700 RLU, respectively. The Trimeric HA Binding: RLU in test [24] turned out to be 4520 RLU.

B5: TCN-557 (5081_A04) (antibody, V domains shown)
VH: QVQLVQSGAEVKKPGASVKVSCKASGHTFTGYYIHWVRQAPGQGLEWMGWINPDSGATSSAQNFQGRVTMTGDTSSSTAYMELSRLSFDDTAVYYCARVLFTSPFDFWGEGTLVTVSS
VL: QAVVTQEPSLAVSPGGTVTLTCGSSTGAVTRGHYPYWFQQKPGQAPRALIYDSAGNRHSWTPARFSGSLLGGKAALTLSGAQPEDEAEYYCLLSYSGVWVFGGGTKLTVL
With B5, the Trimeric HA Binding RLU in test [1] amounted to 46000 RLU; in [2] it was 17600 RLU; in test [16], 35300 RLU; in test [4], 45200 RLU; in test [5], 43400 RLU; in test [17], 6780 RLU. Further, the Trimeric HA Binding RLU is 40700 RLU in test [6]; 47300 RLU in test [7]; 10200 RLU in test [8]; 45500 RLU in test [9]; 50100 RLU in test [10]; 24400 RLU in test [11]. For the same molecule, the Trimeric HA Binding RLU in [12] came to 27000 RLU; in [18], 20000 RLU; in test [19] it was 27100 RLU; in test [20] it was 53700 RLU; in [14] it was 23300 RLU; in test [21], 24000 RLU. Moreover, the Trimeric HA Binding RLU in [15] came out at 49600 RLU.

B6: TCN-523 (5248_A17) (antibody, V domains shown)
VH: QVQLVQSGAEVKKPGSSVKVSCKASGGSFSNYAFSWVRQAPGQGLEWMGGTIPLLGTTNYAQKFQGRVTISADQFTSTAYMELGSLRSEDTAVYYCTRRKMTTAFDSWGQGTLVTVSS
VL: QPVLTQPPSASASLGASVTLTCTLSSAYSNYKVDWYQQRPGKGPRFVMRVGTGGIVGSKGDGIPDRFSVLGSGLNRYLTIKNIQEEDESDYHCGADHGSGSNFVSPYVFGGGTKLTVL
With B6, the Trimeric HA Binding RLU came to 5700 RLU in [1]; 34700 RLU in test [2]; 36500 RLU in [3]; 45800 RLU in [4]; 5110 RLU in [5]; 37900 RLU in test [6]. The Trimeric HA Binding RLU in test [7] was 3380 RLU; in test [9], 48900 RLU; in test [11], 46900 RLU; in [13] it was 24200 RLU and 24600 RLU; in test [19], 28400 RLU; in [14], 18900 RLU and 24000 RLU and 51300 RLU. Further, the Trimeric HA Binding RLU in test [15] is 29400 RLU and 25100 RLU and 46900 RLU.
